Experiments:
[1] = target: T1, human DR3, full-length, expressed on HEK293 NFkB-luciferase reporter cells (human, UniProt Q93038 25-417); test: cell-based or functional assay
T1 sequence: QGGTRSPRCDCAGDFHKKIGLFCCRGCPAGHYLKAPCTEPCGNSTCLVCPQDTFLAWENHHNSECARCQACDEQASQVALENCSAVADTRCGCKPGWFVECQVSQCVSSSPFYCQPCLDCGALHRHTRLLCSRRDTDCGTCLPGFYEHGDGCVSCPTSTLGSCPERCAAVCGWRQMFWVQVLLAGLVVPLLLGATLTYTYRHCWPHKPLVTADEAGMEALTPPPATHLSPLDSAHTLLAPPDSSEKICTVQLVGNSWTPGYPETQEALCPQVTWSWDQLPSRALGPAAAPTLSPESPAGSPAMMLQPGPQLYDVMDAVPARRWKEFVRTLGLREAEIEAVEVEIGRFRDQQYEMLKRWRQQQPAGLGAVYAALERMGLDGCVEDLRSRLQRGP

[2] = target: T2, cynomolgus monkey TL1A, soluble, E. coli-expressed, residues 72-251 of SEQ ID NO:248 (cynomolgus monkey (Macaca fascicularis), UniProt O95150 72-251 (human entry)); test: SPR 25C, mAb captured
T2 construct: with or without N-terminal Met; also called MfTL1A (E. Coli)
T2 chain: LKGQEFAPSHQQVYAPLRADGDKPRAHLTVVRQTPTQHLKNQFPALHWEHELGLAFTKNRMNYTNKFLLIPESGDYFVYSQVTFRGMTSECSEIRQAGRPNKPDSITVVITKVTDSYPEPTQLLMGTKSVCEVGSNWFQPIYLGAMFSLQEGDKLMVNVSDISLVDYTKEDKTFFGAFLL
Protocol: (§1) Measurements were conducted on a T100 BIACORE™ instrument. […] Kinetic association (kₐ) and dissociation (kd) rate constants were determined by fitting the data to a 1:1 binding model using BIAevaluation 4.1 curve fitting software (BIAcore Life Sciences). Molar concentrations of TL1A/Fhm used in the data fitting assumed a monomeric state for TL1A in solution. Binding dissociation equilibrium constants (KD) and dissociative half-lives (t_{1/2}) were calculated from the kinetic rate constants as: KD (M)=kd/kₐ; and t_{1/2} (min)=[In2/(60*kd)].

[3] = target: T3, Fhm, hTL1A(Q167R), soluble, E. coli-expressed, residues 72-251 of SEQ ID NO:246 (human, UniProt O95150 72-251); test: SPR 25C, mAb captured
T3 construct: with or without N-terminal Met
T3 chain: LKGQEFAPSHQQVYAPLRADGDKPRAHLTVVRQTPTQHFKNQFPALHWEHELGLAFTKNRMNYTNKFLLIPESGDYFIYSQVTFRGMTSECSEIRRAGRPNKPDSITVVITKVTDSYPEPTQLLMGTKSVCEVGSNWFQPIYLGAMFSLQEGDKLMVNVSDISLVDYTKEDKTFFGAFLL
Protocol: as §1

[4] = target: T4, Fhm, hTL1A(Q167R), soluble, CHO-expressed, residues 72-251 of SEQ ID NO:246 (human, UniProt O95150 72-251); test: ELISA, blocks FHM (10 pM) binding hDcR3-Fc; blocking of FHM binding to DcR3
T4 construct: also called Fhm (CHO); FHM (CHO)
T4 chain: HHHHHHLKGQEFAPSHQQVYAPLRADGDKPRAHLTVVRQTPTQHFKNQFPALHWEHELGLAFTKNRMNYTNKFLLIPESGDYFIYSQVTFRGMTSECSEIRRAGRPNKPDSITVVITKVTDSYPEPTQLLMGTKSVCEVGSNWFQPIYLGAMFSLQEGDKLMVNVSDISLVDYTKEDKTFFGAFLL
Protocol: (§2) The ability of antibodies to block human TL1A binding to its cognate receptors, the DR3 and DcR3 receptors, was measured using a competition sandwich ELISA. In addition, blocking of a human TL1A variant FHM (human TL1A Q167R) and the cynomolgus monkey (Macaca fascicularis) TL1A (MfTL1A) protein binding to the human DR3 or DcR3 receptors was measured in the same manner. Constant amounts of biotinylated human TL1A or FHM (both expressed with a 6-His tag in CHO cells) or biotinylated MfTL1A (expressed in CHO cells) were separately titrated with varying amounts of antibodies. The antibody-protein complexes were incubated in solution (1 hr, 25° C.) and then transferred to microtiter plates coated with human DR3 (hDR3) or human DcR3 (hDcR3) expressed as human IgG1 Fc fusion proteins. After one hour at 25° C. the wells were washed, and bound human or monkey TL1A was detected with streptavidin conjugated with horseradish peroxidase (HRP). Wells were developed with a TMB solution to produce a colorimetric reaction and quenched with aqueous sulfuric acid before reading absorbance at 450 nm on a Perkin-Elmer Victor X5 plate reader. A sigmoidal dose-response curve was fit to the data using the Prism™ data analysis package. […] Both fully human anti-hTL1A mAbs and comparator antibodies, i.e., control mAb1 (an anti-hTL1A antibody with heavy and light chain variable domains having the amino acid sequences corresponding to SEQ ID NOS:21 and 27, respectively, of US 2009/0280116) and control mAb3 (an anti-hTL1A antibody with heavy and light chain variable domains having the amino acid sequences corresponding to SEQ ID NOS:57 and 48, respectively, of US 2009/0280116), were included in the study. NB: No binding under the conditions tested; NT: Not tested. Concentrations of biotinylated soluble ligands: (1) 150 pM; (2) 500 pM; (3) 10 pM; and (4) 50 pM.

[5] = target: T5, mouse TL1A, soluble, E. coli-expressed, residues 76-252 of SEQ ID NO:250 (mouse, UniProt Q5UBV8 76-252); test: SPR 25C, steady state
T5 construct: with or without N-terminal Met; also called mTL1A (E. Coli)
T5 sequence: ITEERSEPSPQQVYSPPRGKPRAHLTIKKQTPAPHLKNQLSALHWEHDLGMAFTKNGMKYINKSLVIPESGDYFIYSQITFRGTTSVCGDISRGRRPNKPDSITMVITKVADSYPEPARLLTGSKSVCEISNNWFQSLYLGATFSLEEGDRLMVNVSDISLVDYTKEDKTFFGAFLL
Protocol: as §1, with “Binding dissociation equilibrium constants (KD) and dissociative half-lives (t_{1/2}) were calculated from the kinetic rate constants as: KD (M)=kd/kₐ; and t_{1/2} (min)=[In2/(60*kd)].” left out

[6] = target: T2, cynomolgus monkey TL1A, soluble, E. …; test: SPR 37C, mAb captured
Protocol: as §1

[7] = target: T6, cynomolgus monkey TL1A, soluble, CHO-expressed, residues 72-251 of SEQ ID NO:248 with N-terminal His6-tag (cynomolgus monkey (Macaca fascicularis), UniProt O95150 72-251 (human entry)); test: ELISA, blocks MfTL1A (50 pM) binding hDcR3-Fc
T6 construct: also called MfTL1A; MfTL1A (CHO)
T6 chain: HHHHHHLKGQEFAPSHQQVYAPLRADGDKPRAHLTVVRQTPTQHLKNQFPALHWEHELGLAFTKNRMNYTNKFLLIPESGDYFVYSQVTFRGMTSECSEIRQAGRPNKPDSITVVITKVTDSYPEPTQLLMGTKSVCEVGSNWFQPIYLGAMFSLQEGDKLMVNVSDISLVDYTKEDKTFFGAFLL
Protocol: as §2

[8] = target: T7, human TL1A, soluble, CHO-expressed, residues 72-251 of SEQ ID NO:244 with N-terminal His6-tag (human, UniProt O95150 72-251); test: ELISA, blocks hTL1A (150 pM) binding hDR3-Fc
T7 construct: also called hTL1A; hTL1A (CHO)
T7 sequence: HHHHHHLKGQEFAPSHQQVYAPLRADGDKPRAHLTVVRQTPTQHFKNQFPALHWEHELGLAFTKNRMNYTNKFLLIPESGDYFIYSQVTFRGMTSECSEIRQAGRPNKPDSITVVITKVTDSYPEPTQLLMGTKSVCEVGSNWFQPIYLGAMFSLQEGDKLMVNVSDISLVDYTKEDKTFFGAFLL
Protocol: as §2

[9] = target: T7, human TL1A, soluble, CHO-expressed, …; test: ELISA, blocks hTL1A (10 pM) binding hDcR3-Fc
Protocol: as §2

[10] = target: T6, cynomolgus monkey TL1A, soluble, …; test: ELISA, blocks MfTL1A (500 pM) binding hDR3-Fc
Protocol: as §2

[11] = target: T4, Fhm, hTL1A(Q167R), soluble, …; test: ELISA, blocks FHM (150 pM) binding hDR3-Fc
Protocol: as §2

[12] = target: T4, Fhm, hTL1A(Q167R), soluble, …; test: ELISA, blocks FHM (10 pM) binding hDcR3-Fc
Protocol: as §2

Binder | EC50 (cells), NFkB-luciferase reporter [1] | Kd [2] | t1/2 [2] | binding result [3] | IC50 [4] | binding result [5] | Kd [6] | t1/2 [6] | IC50 [7] | IC50 [8] | IC50 [9] | IC50 [10] | Kd [3] | t1/2 [3] | IC50 [11] | IC50 [12]
full length human TL1A expressed on HEK293 cells (ligand) MAEDLGLSFGETASVEMLPEHGSCRPKARSSSARWALTCCLVLLPFLAGLTTYLLVSQLRAQGEACVQFQALKGQEFAPSHQQVYAPLRADGDKPRAHLTVVRQTPTQHFKNQFPALHWEHELGLAFTKNRMNYTNKFLLIPESGDYFIYSQVTFRGMTSECSEIRQAGRPNKPDSITVVITKVTDSYPEPTQLLMGTKSVCEVGSNWFQPIYLGAMFSLQEGDKLMVNVSDISLVDYTKEDKTFFGAFLL | 23500 cells | – | – | – | – | – | – | – | – | – | – | – | – | – | – | –
full-length Fhm, human TL1A(Q167R), expressed on HEK293 cells (ligand) MAEDLGLSFGETASVEMLPEHGSCRPKARSSSARWALTCCLVLLPFLAGLTTYLLVSQLRAQGEACVQFQALKGQEFAPSHQQVYAPLRADGDKPRAHLTVVRQTPTQHFKNQFPALHWEHELGLAFTKNRMNYTNKFLLIPESGDYFIYSQVTFRGMTSECSEIRRAGRPNKPDSITVVITKVTDSYPEPTQLLMGTKSVCEVGSNWFQPIYLGAMFSLQEGDKLMVNVSDISLVDYTKEDKTFFGAFLL | 47900 cells | – | – | – | – | – | – | – | – | – | – | – | – | – | – | –
H2M1681N (antibody, V domains shown) VH: EVQLLESGGGLVQPGKSLRLSCAVSGFTFSTYGMNWVRQAPGKGLEWVSSISGTGRTTYHADSVQGRFTVSRDNSKNILYLQMNSLRADDTAVYFCTKERGDYYYGVFDYWGQGTLVTVSS VL: DIQMTQSPSTLSASVGDRVTITCRASQTISSWLAWYQQTPEKAPKLLIYAASNLQSGVPSRFSGSGSGTEFTLTISSLQPDDFATYYCQQYHRSWTFGQGTKVEIT | – | 0.546 nM | 54 min | no binding (tested: up to 100 nM) | 0.234 nM | no binding (tested: up to 100 nM) | 1.5 nM | 14 min | 0.149 nM | 0.037 nM | 0.013 nM | 0.061 nM | – | – | – | –
H2M1805N (antibody, V domains shown, chimeric hybridoma antibody: human variable regions, mouse constant regions (mouse Fc)) VH: QVQLQQWGAGLLKPSETLSLTCAVYGGSFTGFYWSWIRQPPGKGLEWIGEINHRGNTNYNPSLKSRVTMSVDTSKNQFSLNMISVTAADTAMYFCASPFYDFWSGSDYWGQGTLVTVSS VL: DIMLTQTPLTSPVTLGQPASISCKSSQSLVHSDGNTYLSWLQQRPGQPPRLLFYKISNRFSGVPDRFSGSGAGTDFTLKISRVEAEDVGVYYCMQATQFPLTFGGGTKVEIK | – | 0.345 nM | 67 min | no binding (tested: up to 100 nM) | 2.24 nM | no binding (tested: up to 100 nM) | 0.439 nM | 36 min | 1.14 nM | 0.006 nM | 0.012 nM | 0.013 nM | – | – | – | –
H2M1817N (antibody, V domains shown, chimeric hybridoma antibody: human variable regions, mouse constant regions (mouse Fc)) VH: QVQLQQWGAGLLKPSETLSLTCAVSGGSFSDYFWTWIRQPPGKGLEWIGEISHSGRTNYNPSLKSRVTISVDTSMSQFSLKMTSVTAADSAVYYCARDYPNWVFDYWGQGTLVTVSS VL: EIELTQSPGTLSLSPGEGATLSCRASQSVFNSYLAWYQQKPGQAPRLLIYGASRRATGIPDRFSGSGSGTDFTLTISRLEPGDFAVYFCQQYGNSPLTFGGGTKVEIK | – | 1.25 nM | 37 min | – | – | no binding (tested: up to 100 nM) | 1 nM | 30 min | 0.776 nM | 0.154 nM | 0.89 nM | 0.137 nM | 0.451 nM | 57 min | 0.249 nM | 0.666 nM
